Source: the supplement of paper PMC12042874
± gives the uncertainty stated by the source.

Test: amyloid nucleation score (Sup35N fusion, yeast selection) (log enrichment); library NNK3; higher = more nucleation; inactive = no reads after selection
Method in brief: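 Sup35N fusions to peptides of 20 random codons were expressed in psi-negative yeast, induced 24 hours with 100 μM copper sulfate, and grown 7 days at 30°C on medium lacking adenine and uracil. Input and output plasmid inserts were sequenced by Illumina. The nucleation score is the DiMSum log enrichment of output over input reads, centred on the mode score of non-aggregating sequences. Sequences with under 100 input reads were excluded.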
For WYSNYCMIDRHGVFEVVSCM, the amyloid nucleation score was “inactive”. With WYSRLRLEQMRKWCHRVL the amyloid nucleation score was “inactive”. For YACETVMSFVYMITFIRYLR, the amyloid nucleation score was “inactive”. In the case of YACRVGVWKRVRVWNSGVSL, the amyloid nucleation score is reported as “inactive”. In the case of YAFIL, the amyloid nucleation score is reported as “inactive”. With YAHLAL the amyloid nucleation score was “inactive”. In the case of YALVVR, the amyloid nucleation score is reported as “inactive”. With YARYMYYATNKINNWVVLKP the amyloid nucleation score was “inactive”. In the case of YASVEIFHWTFSGILYSWGH, the amyloid nucleation score is reported as “inactive”. For YASWKLRTN, the amyloid nucleation score was “inactive”. With YCETLTRY the amyloid nucleation score was “inactive”. In the case of YCFSFAISCNDMRLFFLVNV, the amyloid nucleation score is reported as “inactive”. For YCSCMLTGNMGRSH, the amyloid nucleation score was -0.032 ± 0.33. With YCSYQNR the amyloid nucleation score was “inactive”. In the case of YDELY, the amyloid nucleation score is reported as “inactive”. With YDKWSRSMYVKLCLGAALSW the amyloid nucleation score was “inactive”. For YDLGIGNKHVRYLWGPARKK, the amyloid nucleation score was “inactive”. In the case of YDLRAALKV, the amyloid nucleation score is reported as “inactive”. With YDNANGRTRIIMISGRVSNY the amyloid nucleation score was “inactive”. For YDRVSMGRFIKR, the amyloid nucleation score was “inactive”. For YDVFLIL, the amyloid nucleation score was “inactive”. YDVPTSTDSLFATFVYYGRR showed an amyloid nucleation score of 1.44 ± 0.12. With YEDQRSLRFCR the amyloid nucleation score was “inactive”. In the case of YEMENDVS, the amyloid nucleation score is reported as “inactive”. For YESHLLRNRDSRTYSR, the amyloid nucleation score was “inactive”. For YESHLSRRLLIMYIGAFLGR, the amyloid nucleation score was “inactive”. For YFAVMGGITLHLFAVIRSCL, the amyloid nucleation score was “inactive”. YFCGAVEESERLRGMEGNPD showed an amyloid nucleation score of 0.84 ± 0.2. For YFCVCSCVDFGYASYRGYAA, the amyloid nucleation score was “inactive”. In the case of YFFIRVIALYLRVELSL, the amyloid nucleation score is reported as “inactive”. With YFGCSYTNQAFGRSDSSYVD the amyloid nucleation score was “inactive”. For YFINSFCVAVWIICHQGVCA, the amyloid nucleation score was “inactive”. In the case of YFKRCQGNEQFSRNRNANGA, the amyloid nucleation score is reported as “inactive”. For YFRSLGLAIGCNR, the amyloid nucleation score was “inactive”. In the case of YFSVLSESVSHSDVFRS, the amyloid nucleation score is reported as “inactive”. For YFVSVGRNKELRGLFTRLVV, the amyloid nucleation score was “inactive”. Work on YFVTFVYTKLLCNVRSLL yielded an amyloid nucleation score of 0.578 ± 0.12. With YFYGLQWPCD the amyloid nucleation score was “inactive”. With YGDEASPLSFCIDHEDRVKV the amyloid nucleation score was “inactive”. YGFAYV gave an amyloid nucleation score of -0.336 ± 1.1. In the case of YGFCSC, the amyloid nucleation score is reported as -0.033 ± 0.81. YGFMCLVCIGTCDCKRSWQG gave an amyloid nucleation score of 2.28 ± 0.086. In the case of YGHSRWSKISHRSSACLFGS, the amyloid nucleation score is reported as “inactive”. For YGLTVCTTGLVFNNWMGSMV, the amyloid nucleation score was 1.83 ± 0.11. With YGMSTG the amyloid nucleation score was “inactive”. In the case of YGMYNMTGNMAFKTPARYIF, the amyloid nucleation score is reported as “inactive”. YGNVIFRFVRADERI showed an amyloid nucleation score of 0.314 ± 0.35. In the case of YGRRMAHAGGVTGYGNLWCH, the amyloid nucleation score is reported as “inactive”. With YGYFHTRGYVAFE the amyloid nucleation score was “inactive”. For YHCAFVSINSECMVDGLTLC, the amyloid nucleation score was 0.883 ± 0.15. With YHGCPERVWLSA the amyloid nucleation score was “inactive”. Substance YHMVCNCDWVGVAFYVSYGR has an amyloid nucleation score of 1.91 ± 0.065. For YIALCLRYHTFLMKQEFHVG, the amyloid nucleation score was “inactive”. For YIDFVPLVYTRKFDGEETCI, the amyloid nucleation score was “inactive”. For YIFFEWGINPHRGDYVFSFR, the amyloid nucleation score was “inactive”. YIGCCWYSSCDRVSYRYSVM gave an amyloid nucleation score of 2.78 ± 0.06. With YIGRAGQFDRRFFGSLCCAM the amyloid nucleation score was “inactive”. YIIFVNKLSSPYFVT gave an amyloid nucleation score of 1.06 ± 0.19. In the case of YIITFGSMTCLVVTGNPAIV, the amyloid nucleation score is reported as -0.039 ± 0.66. In the case of YILNC, the amyloid nucleation score is reported as “inactive”. For YILSTLAFFGDRNYDMVLGC, the amyloid nucleation score was “inactive”. Work on YINFISWNVCVSCLFWLDSV yielded an amyloid nucleation score of 2.09 ± 0.054. In the case of YISHWASGSFIVNYIERWMR, the amyloid nucleation score is reported as 0.707 ± 0.29. In the case of YISLISCMGKVNY, the amyloid nucleation score is reported as 2.31 ± 0.089. For YISLVSWHNGWYSKLICGVV, the amyloid nucleation score was “inactive”. Substance YITNVQVIGMMVINSNHKGV has an amyloid nucleation score of 3.42 ± 0.058. In the case of YIYRKCVD, the amyloid nucleation score is reported as “inactive”. With YKHVARLEP the amyloid nucleation score was “inactive”. For YKKVLLDSFYSDTWSSQGSR, the amyloid nucleation score was “inactive”. For YKLERTRPDSFMVCERINGH, the amyloid nucleation score was “inactive”. In the case of YKLICMSSRWTFLSSRQGEF, the amyloid nucleation score is reported as “inactive”. With YKLRVNSVETNCTEILTLVE the amyloid nucleation score was “inactive”. In the case of YKWARYVFTTDNYFWVPAGY, the amyloid nucleation score is reported as “inactive”. For YKYGPARCRKRGDSCAKGGG, the amyloid nucleation score was “inactive”. In the case of YKYVFHPIFFDQGT, the amyloid nucleation score is reported as “inactive”. In the case of YLCFLSKMVSYSISYQWSRQ, the amyloid nucleation score is reported as “inactive”. With YLDYSFREFCRMNQ the amyloid nucleation score was “inactive”. With YLEEARQYNLQRYWKDLKVL the amyloid nucleation score was “inactive”. For YLFLVRSQTLRVRYWTRNPP, the amyloid nucleation score was “inactive”. In the case of YLGIFWRFFLRFSRGVTVWL, the amyloid nucleation score is reported as -0.488 ± 0.96. For YLIAIG, the amyloid nucleation score was “inactive”. With YLIEYTSSNKPMAPLSDDTQ the amyloid nucleation score was “inactive”. With YLINPVEVD the amyloid nucleation score was “inactive”. YLISNVFIVLSVDLCDVLGL gave an amyloid nucleation score of 2.44 ± 0.072. In the case of YLLSMSENMRLALIECVAV, the amyloid nucleation score is reported as “inactive”. In the case of YLLSVYLLVATSCMYGNMGE, the amyloid nucleation score is reported as “inactive”. With YLLVLMVERF the amyloid nucleation score was “inactive”. With YLMVSVNFFSYVLSESRMCG the amyloid nucleation score was 0.85 ± 0.12. With YLNISGWSYFNCTRSWLLNR the amyloid nucleation score was “inactive”. For YLNNWMSWRRSLRRHIEVVR, the amyloid nucleation score was “inactive”. In the case of YLRHIVFNRQDYMSTRLCKH, the amyloid nucleation score is reported as “inactive”. With YLRVQDLWWNKFENARHSSI the amyloid nucleation score was “inactive”. With YLSASYIVYFIITEYYSYIF the amyloid nucleation score was “inactive”. With YLSGSDIGFGYERCKIDSGV the amyloid nucleation score was “inactive”. For YLSICVMFLVASRVRSISSI, the amyloid nucleation score was “inactive”. In the case of YLSINTAEYHFQEQVLVFVY, the amyloid nucleation score is reported as “inactive”. With YLSSSYVVGDMSCV the amyloid nucleation score was “inactive”. For YLSTL, the amyloid nucleation score was “inactive”. With YLTEWDLGNVWRNPSAATPM the amyloid nucleation score was “inactive”. In the case of YLVAKDVSCNWVVTDGRLCH, the amyloid nucleation score is reported as “inactive”. For YLVMRSKYLYRFYAMVLKDL, the amyloid nucleation score was “inactive”. In the case of YLVQNFKT, the amyloid nucleation score is reported as -0.401 ± 0.6. With YLVSLRLVYSNILEFVKRVC the amyloid nucleation score was “inactive”. In the case of YLVSY, the amyloid nucleation score is reported as “inactive”. With YLVVHW the amyloid nucleation score was “inactive”. In the case of YLYRNRS, the amyloid nucleation score is reported as “inactive”. In the case of YMLLCPRPRGRSLRINNNDE, the amyloid nucleation score is reported as “inactive”. With YMLLVSGFA the amyloid nucleation score was “inactive”. In the case of YMLTEFYLFPDRILRHRRTD, the amyloid nucleation score is reported as “inactive”. In the case of YMPFYDSCVRHAYRSSFR, the amyloid nucleation score is reported as 0.038 ± 0.43. In the case of YMVHDHFKSNFRMCGCGYFN, the amyloid nucleation score is reported as “inactive”. In the case of YNANFFWYLADGIFDA, the amyloid nucleation score is reported as “inactive”. In the case of YNAYLKENLILLYLCRSSRE, the amyloid nucleation score is reported as 2.17 ± 0.063. In the case of YNCGHLNYGIVNFLFYVWLI, the amyloid nucleation score is reported as “inactive”. Work on YNFVPVFHVNMSVFLCILVL yielded an amyloid nucleation score of 2.43 ± 0.072. For YNMNVFAGGCAMCMWISRLF, the amyloid nucleation score was 2.61 ± 0.074. With YNRKWDMQY the amyloid nucleation score was “inactive”. With YPFLSIGLYQCRS the amyloid nucleation score was “inactive”.
